Source: IntAct's records for PubMed 21454543

Target: rac1_human RAC1 (UniProt P63000)

Row | Substance | effect of a mutation on the interaction
1 | Leucine-rich repeat serine/threonine-protein kinase 2 (Homo sapiens), Q5S007 G2019S | decreasing interaction
2 | Leucine-rich repeat serine/threonine-protein kinase 2 (Homo sapiens), Q5S007 I2020T | increasing interaction
3 | Leucine-rich repeat serine/threonine-protein kinase 2 (Homo sapiens), Q5S007 K1906M | decreasing interaction
4 | Leucine-rich repeat serine/threonine-protein kinase 2 (Homo sapiens), Q5S007 R1441C | disrupting interaction
5 | Leucine-rich repeat serine/threonine-protein kinase 2 (Homo sapiens), Q5S007 Y1699C | increasing interaction

Target: lrrk2_human LRRK2 (UniProt Q5S007)

Row | Substance | effect of a mutation on the interaction
6 | Ras-related C3 botulinum toxin substrate 1 (Homo sapiens) (from UniProt P63000) T17N | decreasing interaction
